Values joined by “and” are separate entries in the source; they are usually repeats but may differ in a detail not shown here. Identical values can stand only once.
Experiments:
Experiment in all cases: cell-based or functional assay
[1] = target: HLA-DR of the DR^str donor (HLA-DRB1 variant bound strongly by MVR), on B cells, T cells and EBV LCLs (human)
[2] = target: HLA-DR of the DR^int donor (HLA-DRB1 variant bound with intermediate affinity by MVR), on B cells and T cells (human)
[3] = target: HLA-DR of the DR^weak donor (HLA-DRB1 variant bound weakly by MVR), on B cells, T cells and EBV LCLs (human)

B1: MVR CAR (second-generation HLA-DR CAR, FLAG-tagged, from pELPS-FLAGMVRBBz, expressed on T cells or EBV LCLs) (protein)
chain: DYKDDDDKDIQMTQSSSYLSVSLGGRVTITCKASDHINNWLAWYQQKPGNAPRLLISGATSLETGVPSRFSGSGSGKDYTLSITSLQTEDVATYYCQQYWSTPFTFGSGTKLEIKGGGGSGGGGSGGGGSQVQLKESGPGLVAPSQSLSITSTVSGFSLSRYSVHWVRQPPGKGLEWLGMIWGGGSTDYNSALKSRLSISKDNSKSQVFLKMNSLQTDDTAMYYCARNEGDTTAGTWFAYWGQGTLVTVSSTTTPAPRPPTPAPTIASQPLSLRPEACRPAAGGAVHTRGLDFACDIYIWAPLAGTCGVLLLSLVITLYCKRGRKKLLYIFKQPFMRPVQTTQEEDGCSCRFPEEEEGGCELRVKFSRSADAPAYKQGQNQLYNELNLGRREEYDVLDKRRGRDPEMGGKPRRKNPQEGLYNELQKDKMAEAYSEIGMKGERRRGKGHDGLYQGLSTATKDTYDALHMQALPPR
frequency of CD4+ MVR-CAR T cells with two or more polyfunctional markers after co-culture with DR^str-EBV-LCLs [1]: 71.3%
frequency of CD8+ MVR-CAR T cells with two or more polyfunctional markers after co-culture with DR^str-EBV-LCLs [1]: 29.4%
granule influx into DR^str B cells and DR^str EBV LCLs relative to CD19 CAR T cells [1]: 2 fold and 4 fold
granule transfer rate to DR^str-EBV-LCLs relative to DR^weak-EBV-LCLs [1]: 2 to 3 times higher
frequency of CAR T cells with two or more exhaustion markers (LAG-3, Tim-3, CTLA-4, PD-1) [2]: 65.8%
frequency of CAR T cells with two or more exhaustion markers [3]: 9.2%
frequency of CD4+ MVR-CAR T cells with two or more polyfunctional markers after co-culture with DR^weak-EBV-LCLs [3]: 31.6%
frequency of CD8+ MVR-CAR T cells with two or more polyfunctional markers after co-culture with DR^weak-EBV-LCLs [3]: 26.3%
frequency of Tim-3 expressing CAR T cells [3]: 60.7%
surface CAR expression (MFI) relative to CD19 CAR T cells [3]: 2 fold lower

From patent US20200165342A1
